Source: patent publication US20200332015A1 (NAMAB THERAPEUTICS, published 2020)

Key:
[1] = target: T1, human CD137 expressed on Jurkat cells (human, UniProt Q07011 24-255); test: cell-based or functional assay
[2] = target: T1, human CD137 expressed on Jurkat cells; test: cell-based or functional assay; remark: listed apart in the source
[3] = target: T1, human CD137 expressed on Jurkat cells; test: cell-based or functional assay; remark: listed apart in the source
[4] = target: T2, recombinant human CD137 extracellular domain (Peprotech, cat. 310-15-1MG) (human, UniProt Q07011 24-186); test: SPR T200, Morrison format captured, ECD analyte
T2 construct: also called human CD137 ECD; CD137 ECD
Experimental: (§1) Affinity to PDL1 of the different species was determined by SPR measurements using a Biacore T200 device (GE Healthcare). An antibody specific for the Fc region of human IgGs was immobilized on a sensor chip (CM5 sensor chip, GE Healthcare) by amine-coupling. For all formats, with the exception of the Fc containing Morrison formats, PDL1-Fc chimeric protein from different species were captured by the immobilized antibody. Three-fold serial dilutions of the molecules specific for PDL1 (0.12-90 nM) were injected into the flow cells for three minutes and dissociation was monitored for 10 minutes. After each injection cycle, surfaces were regenerated with one injection of a 3 M MgCl₂ solution. The apparent dissociation (kd) and association (kₐ) rate constants and the apparent dissociation equilibrium constant (KD) were calculated using one-to-one Langmuir binding model. Affinity to CD137 of the different species was determined using the identical setup as for PDL1 with the exception that CD137-Fc chimeric proteins from different species were captured by the immobilized antibody.
(§2) The Fc containing formats were directly captured by the antibody specific for the Fc region of human IgGs. Two-fold serial dilutions of PDL1 extracellular domain or CD137 extracellular domain ranging from 90 to 0.35 nM were tested for binding to the IgG captured on the biosensor chip. After each injection cycle, surfaces were regenerated with one injection of a 3 M MgCl2 solution.

[5] = target: T3, human PDL1 extracellular domain (human, UniProt Q9NZQ7 19-238); test: SPR T200, Morrison format captured, ECD analyte
T3 construct: extracellular domain; Analyte for the Fc containing Morrison formats
Experimental: as §1, §2

[6] = target: T1, human CD137 expressed on Jurkat cells; test: cell-based or functional assay; remark: listed apart in the source

B1: PRO1060 (33-03-G02 IgG1 HC with 38_02_A04 sc01 scFv, PDL1/CD137(scFv) silent Morrison) (bispecific antibody)
light: DIQMTQSPSSLSASVGDRVTITCQASQSINDYLAWYQQKPGKAPKLLIYKASTLASGVPSRFSGSGSGTDFTLTISSLQPEDFATYYCQQGYIITDIDNVFGTGTKVTVLGTVAAPSVFIFPPSDEQLKSGTASVVCLLNNFYPREAKVQWKVDNALQSGNSQESVTEQDSKDSTYSLSSTLTLSKADYEKHKVYACEVTHQGLSSPVTKSFNRGEC
heavy: QVQLQESGPGLVKPSETLSLTCKVSGFSFSSGYDMCWIRQPPGKGLEWIGCVVAGSVDITYYASWAKGRVTISVDSSKNQFSLKLSSVTAADTAVYYCARKDAYSDAFNLWGQGTLVTVSSASTKGPSVFPLAPSSKSTSGGTAALGCLVKDYFPEPVTVSWNSGALTSGVHTFPAVLQSSGLYSLSSVVTVPSSSLGTQTYICNVNHKPSNTKVDKRVEPKSCDKTHTCPPCPAPEAAGGPSVFLFPPKPKDTLMISRTPEVTCVVVDVSHEDPEVKFNWYVDGVEVHNAKTKPREEQYNSTYRVVSVLTVLHQDWLNGKEYKCKVSNKALGAPIEKTISKAKGQPREPQVYTLPPSREEMTKNQVSLTCLVKGFYPSDIAVEWESNGQPENNYKTTPPVLDSDGSFFLYSKLTVDKSRWQQGNVFSCSVMHEALHNHYTQKSLSLSPGKGGGGSGGGGSIQMTQSPSSLSASVGDRVTITCQASQSINNVLAWYQQKPGKAPKLLIYRASTLASGVPSRFSGSGSGTDFTLTISSLQPEDFATYYCQSSYGNYGDFGTGTKVTVLGGGGGSGGGGSGGGGSGGGGSQVQLQESGPGLVKPSETLSLTCKVSGFSFSNSYWICWIRQPPGKGLEWIGCTFVGSSDSTYYANWAKGRVTISVDSSKNQFSLKLSSVTAADTAVYYCARHPSDAVYGYANNLWGQGTLVTVSS
notes: IgG1 with scFv fused to the heavy chain; called bivalent; also called Morrison-H
[1]
  EC50 NFkB-luciferase, CHO-PDL1 cells, 6 h: 0.0564 µg/mL
[2]
  EC50 NFkB-luciferase, HCC827 with IFNy stimulation: 0.0175 µg/mL
  EC50 NFkB-luciferase, HCC827 without IFNy stimulation: 0.0136 µg/mL
[3]
  max. activation, HCC827 +IFNg, 24h: 97%
  max. activation, NF-kB reporter gene, CHO-PD-L1, 24h: 144%
  rel. IC50 (urelumab/test), HCC827 +IFNg, 24h: 3.01 ratio
  rel. IC50 (urelumab/test), HCC827 -IFNg, 24h: 3.5 ratio
  rel. IC50 (urelumab/test), NF-kB reporter gene, CHO-PD-L1, 24h: 0.58 ratio
[4]
  Kd: 1.3 nM
  koff: 0.00039 s⁻¹
  kon: 300000 M⁻¹ s⁻¹
[5]
  Kd: 0.036 nM
  koff: 4.6e-05 s⁻¹
  kon: 1.3e+06 M⁻¹ s⁻¹
[6]
  EC50 NFkB-luciferase, CHO-PDL1 cells, 24 h: 0.0808 µg/mL
